In patent US20240043859A1, “HERBICIDE-RESISTANT PROTEIN, AND GENE AND USE THEREOF” (QINGDAO KINGAGROOT CHEMICAL COMPOUND CO., LTD., priority 2020, published 2024):
“Also recorded” adds a separate entry of the source.

What was measured:
[1] = Chromogenic reaction of degrading herbicides in bacteria: triclopyr; format: cell-based, Escherichia coli; conditions: recombinant E. coli expressing the gene
soybean William82 = test: Spray testing of transgenic soybean T1 seedlings; format: in vivo; conditions: 2,4-D 4.48 kg/ha foliage spray, 10 days after spraying
Excerpt: 1. Vector construction: the pQY2330 vector (see FIG. 8-1) was used as the overexpression vector, containing a Bar resistance gene that can be used as a selection marker for glufosinate. The AAD-like gene, QYD42, SEQ ID NO. 83, was linked to the Xho I restriction site by seamless cloning to construct the transgenic expression vector pQY2330, of which the expression cassette consisted of a double CaMV35S promoter, the AAD-like gene QYD42 and a […] Nos terminator.
2. Genetic transformation of soybeans: Soybean transformation was carried out using the Agrobacterium-mediated cotyledon nodes transformation method (Pareddy D, Chennareddy S, Anthony G, et al. Improved soybean transformation for efficient and high throughput transgenic production[J]. Transgenic Research, 2020, 29(968)). A monoclone of the Agrobacterium (EHA105) comprising the overexpression vector pQY2330 was inoculated into 5 ml YEP liquid medium (containing 25 mg/L Rifampicin and 50 mg/L Kanamycin) and shaking-cultured at 220 rmp/min, 28° C. for 8 hours. And then 0.2-0.3 ml bacteria solution was transferred to 200 ml YEP liquid medium (containing 25 mg/L Rifampicin and 50 mg/L Kanamycin) and shaking-cultured at 220 rmp/min, 28° C. overnight until the bacteria reached the exponential growth stage, then centrifuged at 4000 rmp/min for 20 min to collect the cells into a 50 ml centrifuge tube (sterilized). […]

B1: QYD42: AAD-like enzyme, SEQ ID NO. 83; expressed from vectors pQY2309 (Arabidopsis), pQY2329 (maize), pQY2330 (soybean) (protein)
chain: MQITPIADATFGATVTGLRLATLDDAGFARLHAAWLQHALLVFPGQFLTNAEQIGFAKRFGPIERIGGGDIVAISNVKADGTVRQHSPAEWDDMMKVIVGNMAWHADSTYMPVMAQGAVFSAEVVPPTGGRTCFADMRAAYDALDDATRALVHQRSARHSLVYSQSKLGHVQQAGSAYVGYGMDTTATPLRPLVKRHPETGRLSLLIGRHAHAIPGLEEAESERFLEDLVAWACQPPRVVAHHWTAGDVVLWDNRCLLHRAEPWDFTLPRVMWHSRLAGHPETEAAPLV
modifications: Synthetic polypeptide, QYD42, D42
In the case of B1, the “Chromogenic reaction of degrading herbicides in bacteria: Triclopyr” value [1] is reported as “Yes”, the “Chromogenic reaction of degrading herbicides in bacteria: Triclopyr” value ([1]; listed as D42) is reported as “slight degradation” and the “Resistance of T1 transgenic soybean to 2,4-D (spray)” value (soybean William82) is reported as “no phytotoxicity; also recorded: remains normal”.
